Assay: yeast display, Sf9 membrane polyspecificity reagent, FACS + sequencing; frameworks hold sequencing errors
How it was run: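 Galactose induction of a Saccharomyces cerevisiae BJ5465 synthetic nanobody display library ran 36–48 hours. The cells were then stained for 1 hour at 4 °C with 10% biotinylated, detergent-solubilized Sf9 membrane reagent, pulled down on streptavidin microbeads and FACS-sorted into low and high (top ~1%) gates on expression and reagent-binding fluorescence. Labels for polyreactivity follow the gate of origin.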

Row | Sequence | polyreactivity (PSR sort gate)
1 | QVQLVESGGGLVQAGGSLRLSCAASGGIFTAYPMGWSRQAPGKERELVATITRGGSTNYADSVKGRFTISRDNAKNTVYLQMNSLKPEDTAVYYCNARYSWRSKWWTEDDYWGQGTQVTVSS | high polyreactivity
2 | QVQLVESGGGLVQAGGSLRLSCAASGFTFHNNVMGWYRQAPGKEMELVATISKSGGSTYYADSVKGRFTISRDNAKNTVYLQMNSLKPEDTAVYYCARSYRDYGRYGYWGQGTQVTVSS | high polyreactivity
3 | QFQLVETVGGLVQAGGSLRLSCAASGSIFPGYAMGWYRQAPGKERELVATITWSGGSTYYADSVKGRFTISRDNAKNTVYLQMYSLIPEDTAVYYFNADSNWYYQWNYYGLYDYWGKGTQVTVSS | low polyreactivity
4 | QVQLVESGGGLVQAGGSLRLSCAASGSIFLRYAMGWYRQAPGKERELVAAITTGGGSTYYADSVKGRFTISRDNAKNTVYLQMNSLKPEDTAVYYCAARIRQNPGGDNSWGQGTQVTVSS | low polyreactivity
5 | QVQLVESGGGLVQAGGSLRLSCAASGFTFAYYAMGWYRQAPGKERELVAAINWSGTRTSYADSVKGRFTISRDNAKNTVYLQMNSLKPEDSAVYYCAADSSLRYDYWGQGTQVTVSS | high polyreactivity
6 | QVQLVESGGGLVQAGGSLRLSCAASGRIFRGYAMGWYRQAPGKEREFVAAITKNGGSTYYADSVKGRFTISRDNAKNTVYLQMNSLKPEDTAVYYCAAGGPSTLDDYWGQGTQVTVSS | low polyreactivity
7 | QVQLVESGGGLVHAGGSLRLSCAASGRIFVGYTMGGYRQGPGKERELVAAISWDGDITYYADSVKGRFTISRDKAKNTVYLQMNSLKPEDTAVYYCAVDLPVSESHHTLTFELDYWGQGSQVTVSS | low polyreactivity
8 | QVQLVESGGGLVQAGGSLRLSCAASGNTLVKNAMGWYRQAPGKERELVAANSSSGGRTYYADSVKGRFTISRDNAKTTVYLQLNSLKPEDTAVYYCAARYPSGYYYWGQGTQVTVSS | high polyreactivity
9 | QVQLVESGGGLVQAGGSLRLSCAASGRIFQYYAMGWYRQAPGKERELVASISGRGGRTYYADSVKGRLTISRDNAKNTVYLQMNSLKPEDTAVYYCNAVFSTIRYIRSYNYWGQGTQVTVSS | high polyreactivity
10 | QVQLQESGGGLVQAGGSQRLTCAASGYIFYFQYMGWYRPAPGKEREFVAAISDGANTNYADSVKGRFTISRDNAKNTEYLQMNSLKPEDTAVYYCSVYADENYYYIYWGQGTQVTVSS | low polyreactivity
11 | QVQLVESGGGLVQAGGSLRFSCAASGGTFGYNAMGWYRQAPGKDRELVARISWRGASTYYADSVKGRFTLSRDNAKNTVYLQMNSLKPEDTAVYYCAAYSFNYQPAYAYRGEDYWGQGTQVTVSS | low polyreactivity
12 | QVQLVESGGGLVQAGGSLRLSCAASGSTFGWYAMGWYRQAPGKERELVAAITSGGGTYYADSVKGRFTISRDNAKNTVYLQMNSLKPEVTAVYYCAADFVYSGWAPYDFWVTSYDYWGQGTQVTVSS | low polyreactivity
13 | QVQLVESGGGLVQAGGSLRLSCAASGFIFDVYAMGWYRQAPGKERELVAAITSGDGTNYADSVKGRFTISRDNAKNTVYLQMNSLKPEDTAVYYCAADDGVTYRGIIFSYWGQGTQVTVSS | low polyreactivity
14 | QVQLVESGGGLVQAGGSLRLSSAASGRIFEGYAMGWYRQAPGKERELVAAISSGGSTYYADSVKGRFTISRDNAKNTVYLQMNSLKPEDTAVYYCNAAHSVVSHGPGAGLEMDYWGQGTQVTVSS | low polyreactivity
15 | QVQLVESGGGLVQAGGSLRLSCAASGSTFKRNAMGWYRQAPGKERELVAAISFRGGSTYYADSVKGRFTISRDNAKNTVYLQMNSLKPEDTAVYSCAAGIYRIRGGGISFDYWGQGTQVTVSS | high polyreactivity
16 | QVQLVESGGGLVQAGGSLSLSCAASGNIVPSYVMGWYRQAPGKERELVAAITWNGGSTYYADSVKGRFTISRDNAKNTVYLQMNSLKPEDTAVYDCATSGPRLLRYYSSSSPSYDYWGQGTQVTVSS | low polyreactivity
17 | QVQLVESGVGLVQAGGSLRLSCAASGNIFLKNAMGWYRQAPGKERELVAAMSKRGGSTYYADSVKGRFTISRDNAKNTVYLQMNSLKPEDTAVYYCAARFKTTGYDYWGQGTQVTVSS | high polyreactivity
18 | QVQLVESGGCLVQARGTLRLSCASSGRTIYLYAMPWYRQAPAKERELVAAITKSGGSTYYADSVKGRFTISRDIAMNTVYVQMNSLKPQDTAFYYCYKDLSSTNLDYWGQGTQFTVSS | low polyreactivity
19 | QVQVVESGGGLVQAGGSLRLSCAASGSIFSGYAMGWYREAPGKERELVAAITSSGGSTYYADSVKGRFTISRDNAKKTVYLQMHSLKPEDTAVYYCAAYRYRYYSYDSWGQGTQVTVSS | high polyreactivity
20 | QVQLVESGGGLVQAGGSLRLSCAASGITFDGYAMGWYRQAPGKERELVAAITYSGGRTYYADSVKGRFTISRDNAKNTVYLQMNSLKPEDTAVYYCAVVSRRLYDYDYWGQGTQVTVSS | high polyreactivity

Row | Sequence | polyreactivity (PSR sort gate)
21 | QGQRVESGGGLVQAGGSLRLSCAPSGRTFKYYAMGWYRQAPGKERELFAAISYTGGSTYFADSVMGRFTISRDNAKNTVYLQMNSLKPEDTAVYYCARSYYTNGNALKRDYWGQGTQVTVSS | high polyreactivity
22 | QVQLVESGGGLVQAGGSLRLSCAASGSIFVGYDMGWYRQAPGKERELVAAISWRGVGTYYADSVKGRCTISRDNAKNTVYLQMNSLKPEDTAVYYCAARWTVPRDSAPSKGYDYWGQGTQVTVSS | low polyreactivity
23 | QVQLVESGGGLVQAGGSLRLSCAASGIIFTKYAMGWYRQAPGTERELVAAITSGGRTNYADSVKGRFTISRDNAKNTDYLQMNSLKPEDTAVYYCAARYPSRDLLRRYKYWGQGTQVTVSS | high polyreactivity
24 | QVQLVDSGGGLVQAGGSLRLSCASSGRIFSEYAMGWYRQAPGKERELVAAISRRGGRTYYADSVKGRFTISRDNAKNTVYLQMNSLKPEDTAVYYCAADHGDPGGYDYWGQGTQVTVSS | high polyreactivity
25 | QVQLVESGGGLVQAGGSLRLSCAASGRTFYLYAMGWYRQAPGKERELVAAINTNGARTYYADSVKGRFTISRDHAKNTVYLQMNSLIPEDTAVYYCNADAYRVIANWIYDYWGQGTQVTVSS | low polyreactivity
26 | QVQLVESGGGLVQAGGSLRLSCASSGLILFYNAMGWYRQAPGKERELVATIRRGGTTYYADSVKGRFTISRDNAKNTVYLQMNSLKPEDTAVYYCAKESLYQYDYWGQGTQVTVSS | low polyreactivity
27 | QVQLVESGGGLEQAGGSLRLSCAASGGTFARYVMGWYRQAPGKERELVAAITSGGRTYYADSVKGRFTISRDNAKNTVYLQMNSLKPEDTAVYYCATAPRRRATSYYYWGQGTQVTVSS | high polyreactivity
28 | QVQLVESGGGLVLAGGSLRLSCAASGRTYYAYTMGWYRKAPRKERELVAAISGSGSTTYYADSVKGRFTISRDNAKNTVYLQMNSLKPEDTAVFYCAADFFAGTQRTFDYWGQGTQVTVSS | high polyreactivity
29 | QVQLVESGGGLVQAGGSLRISCAASGGIFIRNAMGWYRQAPGKERELFATISNAGSTYADSVKGRFTISRDNAKNTVYLQMNSLKPEDTAVYYCNRVDWTYPVSQGLQEYDYRGQGTQVTVSS | low polyreactivity
30 | QVQLVESGGGLVQAGGSLRLSCAASGRTLSRYTMGWYIQAPGKERELVAGITRSGGSTYYPDSEKGRFTISRDNAKNTVYLQMNSLKPEDTAVYYCAARWHFLTSSRFDYWGQGTQVTVSS | high polyreactivity
31 | QVQLVESGGGLVQAGGSLRLSCAASGFIFTRNRMGWYRHAPGKETELVAAISSGGRTYYADSVKGRFTISRDNAMNTVYLQMNSLIPEDTAVYYCNAGNRGVYRYDYWGQGTQVNVSS | high polyreactivity
32 | QVQLVESGGGLVQAGGSLRLSCAASGSIFFWNTMGWYRQAPGKVRELVAAITVSGGSTYYADSVKGRFTISRDNAKNTVYLQMNSLKPEDSAVYYCAADPYRRYGYDSYNYWGQGTQVTVSS | high polyreactivity
33 | QVQLVESGGGLVQAGGSLRISCAASGRTFGANAMGWYRQAPGKERELVASISRSGGTTYYADSVKGRFTISRDNAKNTVYLQMNSLKPEDTAVYYCAAQYVRYGHYYWGQGTQVTVSS | high polyreactivity
34 | QVHLVESGGGLVQAGGSLRLSCAASGLTFYSNAMGWYRQAPGKERELVARISTGGSTYADSVKGRFTISRDNAKNTVYLQMNSLKPEDTAVYYCAKLPPRGIDDEYWGQGNQVTVSS | low polyreactivity
35 | QVQLVESGGGLVQARGSLRLSCAASGRIFRKYDMGWYRQAPGKERELVAAISGTGITYYADSVKGRFTISRDNAKNTVYLQMNSMKPEDTAVYYCARGSKPRAWSWAYPSDTSIYDYWGQGTQVTVSS | low polyreactivity
36 | QVQLVESGGGLVQAGGILRLSCAARTFVNYDMGWTRQAHGKERELVAAISSSGGSTNYADSVKGRFTISRDNAKNTVYLQMKSLKPEDTAVYYCAAASRRQVIPAMYYWGQGTQVTVSS | high polyreactivity
37 | QVQLVESGGGLVQAGGSLRLSCAASGFTFAKYAMGWSRQAPGKERELVAAIRSRGDTTYYADSVKGRFTISRDNAKNTVYFQMNSLKPEDTAVYYCAARSYFLVDCSRYDYWGQGSQVTVSS | high polyreactivity
38 | QLQLVESLRGLVQAGGSLRLSCAASVSIIGPNAMGLYRQATGKERELVAAITLSGGSTYYADSVKGRFTISRDNAKNTVYLQMNSLKPEDTAVYYCNADLLPADAPLWVTGGDYWGQGTQVTESS | low polyreactivity
39 | EVQLVESGGGLVQAGGSLRLSCAASGYSFSYNTMGWYRQAPGKERELVAAITRSGGSTYYADSVKGRFTISRDNAKNTVYLQMNSLKPEDTAVYYCNRVGWRGLKKANYWGQGTQVTVSS | high polyreactivity
40 | QVQLVESGGGLVQAGGSLRLSCAASGLTFNVYAMGWYRQAPGKERELVAAITRSTGRTYYADSVKGRFTISRDNAKNTVYLQMNSLIPEDTAVYYCNRVSRQYYYQRGFEYDYWGQGTQVTVSS | high polyreactivity

Source: the nanobody polyreactivity screen of Harvey et al. (2022)
